How the values were obtained:
[1] = target: T1, mouse LRP5 ECD, Fc-tagged (mouse, UniProt Q91VN0 31-1383); assay: ELISA of the IgG on hLRP6, mLRP6, mLRP5, Fc and BSA
T1 construct: extracellular domain; Bought; not shown: Fc tag of the purchased fusion
T1 sequence (looked up): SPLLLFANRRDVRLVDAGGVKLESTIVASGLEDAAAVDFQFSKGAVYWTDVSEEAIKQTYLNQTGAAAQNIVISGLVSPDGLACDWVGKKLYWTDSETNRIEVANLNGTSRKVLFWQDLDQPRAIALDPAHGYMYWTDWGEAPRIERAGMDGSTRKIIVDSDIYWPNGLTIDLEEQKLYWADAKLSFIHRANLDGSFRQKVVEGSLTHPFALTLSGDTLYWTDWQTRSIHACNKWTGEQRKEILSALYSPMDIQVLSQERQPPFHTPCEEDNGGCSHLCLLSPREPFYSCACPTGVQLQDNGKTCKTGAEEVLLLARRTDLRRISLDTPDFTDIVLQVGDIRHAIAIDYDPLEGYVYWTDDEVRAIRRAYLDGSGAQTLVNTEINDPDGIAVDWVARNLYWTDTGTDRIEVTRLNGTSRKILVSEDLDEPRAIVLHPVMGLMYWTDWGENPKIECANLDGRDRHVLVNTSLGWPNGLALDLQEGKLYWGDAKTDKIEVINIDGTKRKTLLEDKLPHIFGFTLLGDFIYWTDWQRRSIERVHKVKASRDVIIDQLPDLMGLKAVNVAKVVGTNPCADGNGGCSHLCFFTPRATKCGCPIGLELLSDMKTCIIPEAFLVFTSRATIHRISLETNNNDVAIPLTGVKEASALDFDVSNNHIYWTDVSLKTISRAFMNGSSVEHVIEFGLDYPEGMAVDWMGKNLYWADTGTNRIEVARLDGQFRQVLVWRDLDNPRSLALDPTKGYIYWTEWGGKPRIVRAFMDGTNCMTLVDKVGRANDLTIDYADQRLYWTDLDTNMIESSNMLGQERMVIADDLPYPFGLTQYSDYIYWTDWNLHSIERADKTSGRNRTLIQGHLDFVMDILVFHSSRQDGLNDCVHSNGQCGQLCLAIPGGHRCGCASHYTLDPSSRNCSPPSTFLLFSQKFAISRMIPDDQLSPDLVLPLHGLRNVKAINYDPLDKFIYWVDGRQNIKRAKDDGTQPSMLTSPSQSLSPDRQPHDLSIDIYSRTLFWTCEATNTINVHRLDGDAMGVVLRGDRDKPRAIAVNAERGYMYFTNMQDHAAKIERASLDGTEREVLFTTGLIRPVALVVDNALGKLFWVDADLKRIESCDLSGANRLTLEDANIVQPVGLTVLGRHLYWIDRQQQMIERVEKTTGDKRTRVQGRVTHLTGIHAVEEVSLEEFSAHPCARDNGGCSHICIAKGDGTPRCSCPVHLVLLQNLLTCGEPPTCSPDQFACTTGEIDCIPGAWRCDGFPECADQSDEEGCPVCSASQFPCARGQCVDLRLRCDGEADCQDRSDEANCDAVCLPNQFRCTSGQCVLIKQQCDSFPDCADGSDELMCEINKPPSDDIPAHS

[2] = target: T2, mouse LRP6 ECD, Fc-tagged (mouse, UniProt O88572 20-1370); assay: as above
T2 construct: extracellular domain; Bought; not shown: Fc tag of the purchased fusion
T2 sequence (looked up): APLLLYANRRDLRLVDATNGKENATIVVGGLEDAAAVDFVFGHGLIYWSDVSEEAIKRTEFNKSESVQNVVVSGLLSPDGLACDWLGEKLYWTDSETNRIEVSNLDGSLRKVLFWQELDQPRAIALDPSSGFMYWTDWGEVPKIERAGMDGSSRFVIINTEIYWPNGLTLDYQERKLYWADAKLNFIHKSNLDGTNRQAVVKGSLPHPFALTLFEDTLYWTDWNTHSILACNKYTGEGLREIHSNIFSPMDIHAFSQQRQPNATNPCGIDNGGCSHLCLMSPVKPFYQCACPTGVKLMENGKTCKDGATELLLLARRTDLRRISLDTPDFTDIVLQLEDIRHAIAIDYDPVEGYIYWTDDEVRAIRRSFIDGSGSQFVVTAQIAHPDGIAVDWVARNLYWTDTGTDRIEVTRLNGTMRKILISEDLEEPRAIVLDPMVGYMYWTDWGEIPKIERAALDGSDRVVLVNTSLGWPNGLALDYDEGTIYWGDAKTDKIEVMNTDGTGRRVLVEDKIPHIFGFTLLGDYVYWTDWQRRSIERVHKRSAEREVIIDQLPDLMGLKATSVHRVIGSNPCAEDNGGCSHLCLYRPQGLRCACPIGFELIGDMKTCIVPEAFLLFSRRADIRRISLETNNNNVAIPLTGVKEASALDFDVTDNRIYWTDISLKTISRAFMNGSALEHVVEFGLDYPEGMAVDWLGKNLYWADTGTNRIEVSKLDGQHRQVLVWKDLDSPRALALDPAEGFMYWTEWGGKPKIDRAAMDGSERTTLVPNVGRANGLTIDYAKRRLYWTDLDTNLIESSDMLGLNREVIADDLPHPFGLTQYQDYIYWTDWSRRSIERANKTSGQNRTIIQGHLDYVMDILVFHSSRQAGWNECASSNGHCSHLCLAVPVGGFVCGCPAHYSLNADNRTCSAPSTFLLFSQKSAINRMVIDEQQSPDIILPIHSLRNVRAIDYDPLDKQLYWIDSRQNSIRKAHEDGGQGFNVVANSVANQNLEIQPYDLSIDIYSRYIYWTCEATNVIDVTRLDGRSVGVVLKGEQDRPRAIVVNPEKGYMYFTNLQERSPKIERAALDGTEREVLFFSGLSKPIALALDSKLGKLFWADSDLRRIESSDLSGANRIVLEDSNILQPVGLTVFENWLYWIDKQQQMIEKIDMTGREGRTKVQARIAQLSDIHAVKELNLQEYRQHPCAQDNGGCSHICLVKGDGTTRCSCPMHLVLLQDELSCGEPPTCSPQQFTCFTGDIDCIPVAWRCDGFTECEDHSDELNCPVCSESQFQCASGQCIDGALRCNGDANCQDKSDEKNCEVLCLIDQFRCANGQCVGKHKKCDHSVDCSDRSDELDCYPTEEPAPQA

85BSA = target: T3, 85BSA (Bos taurus, UniProt P02769); assay: as above
T3 construct: also called bovine serum albumin
T3 sequence (P02769 25-607 limits assumed): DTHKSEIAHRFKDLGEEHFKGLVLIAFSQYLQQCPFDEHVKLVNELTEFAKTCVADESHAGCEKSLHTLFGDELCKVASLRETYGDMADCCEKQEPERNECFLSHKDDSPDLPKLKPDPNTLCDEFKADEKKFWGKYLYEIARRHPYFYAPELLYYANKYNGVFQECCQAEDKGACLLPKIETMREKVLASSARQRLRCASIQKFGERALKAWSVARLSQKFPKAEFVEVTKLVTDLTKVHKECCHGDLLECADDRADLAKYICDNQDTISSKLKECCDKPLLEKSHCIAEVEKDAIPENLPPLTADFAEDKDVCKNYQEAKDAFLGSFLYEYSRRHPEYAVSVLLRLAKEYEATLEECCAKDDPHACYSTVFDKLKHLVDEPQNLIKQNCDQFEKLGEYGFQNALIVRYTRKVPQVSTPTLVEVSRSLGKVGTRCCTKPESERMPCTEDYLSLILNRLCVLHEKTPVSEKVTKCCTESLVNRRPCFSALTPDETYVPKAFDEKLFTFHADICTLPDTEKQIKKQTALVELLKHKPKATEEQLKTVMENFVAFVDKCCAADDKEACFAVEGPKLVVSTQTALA

FZD8 CRD, Fc-tagged = target: T4, FZD8 CRD, Fc-tagged (human, UniProt Q9H461 28-158); assay: kinetic table of the Fab; KD marked '**…'; the printed KD is not kd/ka of the same column; method not named for this figure
T4 construct: domain: CRD; Bought; not shown: Fc tag of the purchased fusion
T4 sequence (looked up): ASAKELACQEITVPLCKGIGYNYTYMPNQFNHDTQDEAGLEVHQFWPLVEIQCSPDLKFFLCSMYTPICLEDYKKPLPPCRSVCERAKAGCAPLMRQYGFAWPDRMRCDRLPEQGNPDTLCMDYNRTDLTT

FZD5 CRD, Fc-tagged = target: T5, FZD5 CRD, Fc-tagged (human, UniProt Q13467 27-167); assay: as above
T5 construct: domain: CRD; Bought; also called FZD5 ECD; not shown: Fc tag of the purchased fusion
T5 sequence (looked up): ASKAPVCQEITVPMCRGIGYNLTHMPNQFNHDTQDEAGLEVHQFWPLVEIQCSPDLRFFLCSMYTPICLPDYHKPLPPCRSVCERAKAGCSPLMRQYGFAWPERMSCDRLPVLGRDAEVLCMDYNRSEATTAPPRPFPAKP

FZD1 CRD, Fc-tagged = target: T6, FZD1 CRD, Fc-tagged (human, UniProt Q9UP38 70-250); assay: as above
T6 construct: domain: CRD; Bought; not shown: Fc tag of the purchased fusion
T6 sequence (Q9UP38 70-250): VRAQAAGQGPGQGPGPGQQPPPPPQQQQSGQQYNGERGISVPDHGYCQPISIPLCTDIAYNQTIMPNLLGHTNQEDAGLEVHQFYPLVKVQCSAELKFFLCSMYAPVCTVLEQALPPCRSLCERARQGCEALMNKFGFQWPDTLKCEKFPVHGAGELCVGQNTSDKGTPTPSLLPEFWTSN

FZD7 CRD, Fc-tagged = FZD7 CRD, Fc-tagged (human, UniProt O75084 33-185); assay: as above
FZD2 CRD, Fc-tagged = target: T7, FZD2 CRD, Fc-tagged (human, UniProt Q14332 24-190); assay: as above
T7 construct: domain: CRD; Bought; not shown: Fc tag of the purchased fusion

B1: LRP6 antibody 2539 (antibody, V domains shown)
VH: EVQLVESGGGLVQPGGSLRLSCAASGFNISYSSIHWVRQAPGKGLEWVAYISSYYGYTYYADSVKGRFTISADTSKNTAYLQMNSLRAEDTAVYYCARAHYFPWAGAMDYWGQGTLVTVSS
VL: DIQMTQSPSSLSASVGDRVTITCRASQSVSSAVAWYQQKPGKAPKLLIYSASSLYSGVPSRFSGSRSGTDFTLTISSLQPEDFATYYCQQYSWGPFTFGQGTKVEIK
notes: also called L6^3
Question: Does B1 bind [1]?
Answer: no binding

Question: Does B1 bind [2]?
Answer: binds

Question: Does B1 bind (85BSA)?
Answer: no binding

B2: LRP6 antibody 2542 (antibody, V domains shown)
VH: EVQLVESGGGLVQPGGSLRLSCAASGFNISSYYIHWVRQAPGKGLEWVASIYSSYGYTSYADSVKGRFTISADTSKNTAYLQMNSLRAEDTAVYYCARTVRGSKKPYFSGWAMDYWGQGTLVTVSS
VL: DIQMTQSPSSLSASVGDRVTITCRASQSVSSAVAWYQQKPGKAPKLLIYSASSLYSGVPSRFSGSRSGTDFTLTISSLQPEDFATYYCQQYYWPITFGQGTKVEIK
Question: What does the source list for B2?
Answer: binding result [1]: no binding; binding result [2]: binds; binding result (85BSA): no binding

B3: F^P - Fab (Fab, V domains shown)
VH: EVQLVESGGGLVQPGGSLRLSCAASGFNIGSSSIHWVRQAPGKGLEWVASIYSAFASTSYADSVKGRFTISADTSKNTAYLQMNSLRAEDTAVYYCARYHFPFGFALDYWGQGTLVTVSS
VL: DIQMTQSPSSLSASVGDRVTITCRASQSVSSAVAWYQQKPGKAPKLLIYSASSLYSGVPSRFSGSRSGTDFTLTISSLQPEDFATYYCQQGVYLFTFGQGTKVEIK
Question: With B3 as the binder, how does the Kd (FZD8 CRD, Fc-tagged) read?
Answer: 0.109 nM

Question: And the Kd (FZD5 CRD, Fc-tagged)?
Answer: 0.11 nM

Question: And the Kd (FZD1 CRD, Fc-tagged)?
Answer: 0.177 nM

Question: What about the Kd (FZD7 CRD, Fc-tagged) of the same binder?
Answer: 0.142 nM

Question: What about the Kd (FZD2 CRD, Fc-tagged) of the same binder?
Answer: 0.126 nM

— patent US20210032352A1 (ANTERA THERAPEUTICS, published 2021)
